Experimental data from US10647739B2, “Flavonoids O-A-glucosylated on the B cycle, method for the production thereof and uses” (Institut National de la Recherche Agronomique, priority 2014, dated 2020).
Where “and” joins values, the source holds several entries; their conditions need not be identical. Equal entries are not always repeated.

Columns and labels:
[1] = apigenin glucosylation acceptor reaction with recombinant glucansucrases (microplate screening); assay type: biochemical; details: sucrose 146 mM, apigenin 2.5 mM, 3% DMSO, 30° C., 24 h, HPLC-UV 340 nm peak areas
Method: (§1) The enzymatic extracts obtained are used to carry out the flavonoid glucosylation enzymatic screening reactions. The enzymatic activity of each centrifuged cell lysate is evaluated in the microplate format, by final weight after 30 minutes incubation in the presence of a final concentration of 146 mM of sucrose, by assaying the reducing sugars with 3,5-dinitrosalicylic acid (DNS). Finally, after dilution in ultrapure water, the absorbance is read at 540 nm.
(§2) The flavonoid acceptor reactions are then carried out in deep-well microplates, in a volume of 300 μl, at final concentrations of sucrose of 146 mM and of flavonoid of 2.5 mM (apigenin) or 5 mM (naringenin) (initially dissolved in 100% DMSO), and 140 μl of centrifuged cell lysate.
(§3) The final DMSO concentration in the reaction medium is 3% (v/v).
(§4) The incubation is carried out at 30° C. and at 700 rpm. After 24 hours, the enzymes are denatured at 95° C. for 15 minutes. These microplates are stored at −80° C. with a view to rapid evaluation of the flavonoid glucosylation by liquid-phase chromatography coupled to mass spectrometry (HPLC-MS or LC-MS).
(§5) With a view to their analyses by HPLC-MS, the extensively homogenized reaction media are diluted to 1/30th in DMSO. The separation of the flavonoids and of their glucosylated forms is carried out in reverse phase with a ProntoSlL Eurobond® 53×3.0 mm 120-3-C18-AQ column (porosity of 120 Å, particle size of 3 μm, C18 grafting, Bischoff Chromatography, Germany).
(§6) The flavonoid glucosylation efficiency was determined from the following formula: Glucosylation efficiency=(Σ(area of the peak of glucosylated flavonoid(s)))/(Σ(area of the peak of glucosylated flavonoid(s))+area of the peak of residual aglycone flavonoid)×100
(§7) The flavonoid glucosylation efficiencies, expressed as a percentage, were calculated from the areas of the peaks of the various products analyzed, as described in example 1, by HPLC with a UV detector (340 nm) after 24 h of reaction.

[2] = naringenin glucosylation acceptor reaction with recombinant glucansucrases (microplate screening); assay type: biochemical; details: sucrose 146 mM, naringenin 5 mM, 3% DMSO, 30° C., 24 h, HPLC-UV 340 nm peak areas
Method: as §1, §2, §3, §4, §5, §6
as §7, with “The flavonoid glucosylation efficiency was determined from the formula set out in example 2. The” for “The”, “(λ340 nm),” for “(340 nm)”

Work on “α-1,2 BrS: wild-type glucansucrase α-1,2 BrS, SEQ ID NO: 11” yielded an apigenin glucosylation efficiency [1] of 2.5% and a naringenin glucosylation efficiency [2] of 26.8%.

B1: DSR-S vardelΔ4N S512C: mutant of truncated DSR-S, SEQ ID NO: 10 (protein)
chain: TQQVSGKYVEKDGSWYYYFDDGKNAKGLSTIDNNIQYFYESGKQAKGQYVTIDNQTYYFDKGSGDELTGLQSIDGNIVAFNDEGQQIFNQYYQSENGTTYYFDDKGHAATGIKNIEGKNYYFDNLGQLKKGFSGVIDGQIMTFDQETGQEVSNTTSEIKEGLTTQNTDYSEHNAAHGTDAEDFENIDGYLTASSWYRPTGILRNGTDWEPSTDTDFRPILSVWWPDKNTQVNYLNYMADLGFISNADSFETGDSQSLLNEASNYVQKSIEMKISAQQSTEWLKDAMAAFIVAQPQWNETSEDMSNDHLQNGALTYVNSPLTPDANSNFRLLNRTPTNQTGEQAYNLDNSKGGFELLLANQEDNSNVVVEAEQLNWLYYLMNFGTITANDADANFDGIRVDAVDNVDADLLQIAADYFKLAYGVDQNDATANQHLSILEDWSHNDPLYVTDQGSNQLTMDDYVHTQLIWSLTKSSDIRGTMQRFVDYYMVDRSNDSTENEAIPNYSFVRAHDCEVQTVIAQIVSDLYPDVENSLAPTTEQLAAAFKVYNEDEKLADKKYTQYNMASAYAMLLTNKDTVPRVYYGDLYTDDGQYMATKSPYYDAINTLLKARVQYVAGGQSMSVDSNDVLTSVRYGKDAMTASDTGTSETRTEGIGVIVSNNAELQLEDGHTVTLHMGAAHKNQAYRALLSTTADGLAYYDTDENAPVAYTDANGDLIFTNESIYGVQNPQVSGYLAVWVPVGAQQDQDARTASDTTTNTSDKVFHSNAALDSQVIYEGFSNFQAFATDSSEYTNVVIAQNADQFKQWGVTSFQLAPQYRSSTDTSFLDSIIQNGYAFTDRYDLGYGTPTKYGTADQLRDAIKALHASGIQAIADWVPDQIYNLPEQELATVTRTNSFGDDDTDSDIDNALYVVQSRGGGQYQEMYGGAFLEELQALYPSLFKVNQISTGVPIDGSVKITEWAAKYFNGSNIQGKGAGYVLKDMGSNKYFKVVSNTEDGDYLPKQLTNDLSETGFTHDDKGIIYYTLSGYRAQNAFIQDDDNNYYYFDKTGHLVTGLQKINNHTYFFLPNGIELVKSFLQNEDGTIVYFDKKGHQVFDQYITDQNGNAYYFDDAGVMLKSGLATIDGHQQYFDQNGVQVKDKFVIGTDGYKYYFEPGSGNLAILRYVQNSKNQWFYFDGNGHAVTGFQTINGKKQYFYNDGHQSKGEFIDADGDTFYTSATDGRLVTGVQKINGITYAFDNTGNLITNQYYQLADGKYMLLDDSGRAKTGFVLQDGVLRYFDQNGEQVKDAIIVDPDTNLS
modifications: Leuconostoc mesenteroides
For B1, the apigenin glucosylation efficiency [1] was 13.9%, the apigenin glucosylation efficiency ([1]; listed as S512C) was 13.9% and the naringenin glucosylation efficiency [2] was 0.0%.

B2: ASNp WT: wild-type recombinant amylosucrase from Neisseria polysaccharea (protein, UniProt Q9ZEU2 1-636, looked up)
Amylosucrase: MLTPTQQVGLILQYLKTRILDIYTPEQRAGIEKSEDWRQFSRRMDTHFPKLMNELDSVYGNNEALLPMLEMLLAQAWQSYSQRNSSLKDIDIARENNPDWILSNKQVGGVCYVDLFAGDLKGLKDKIPYFQELGLTYLHLMPLFKCPEGKSDGGYAVSSYRDVNPALGTIGDLREVIAALHEAGISAVVDFIFNHTSNEHEWAQRCAAGDPLFDNFYYIFPDRRMPDQYDRTLREIFPDQHPGGFSQLEDGRWVWTTFNSFQWDLNYSNPWVFRAMAGEMLFLANLGVDILRMDAVAFIWKQMGTSCENLPQAHALIRAFNAVMRIAAPAVFFKSEAIVHPDQVVQYIGQDECQIGYNPLQMALLWNTLATREVNLLHQALTYRHNLPEHTAWVNYVRSHDDIGWTFADEDAAYLGISGYDHRQFLNRFFVNRFDGSFARGVPFQYNPSTGDCRVSGTAAALVGLAQDDPHAVDRIKLLYSIALSTGGLPLIYLGDEVGTLNDDDWSQDSNKSDDSRWAHRPRYNEALYAQRNDPSTAAGQIYQGLRHMIAVRQSNPRFDGGRLVTFNTNNKHIIGYIRNNALLAFGNFSEYPQTVTAHTLQAMPFKAHDLIGGKTVSLNQDLTLQPYQVMWLEIA
In the case of B2, the apigenin glucosylation efficiency [1] is reported as 0.5±0.5% and 0.5%, the apigenin glucosylation efficiency ([1]; listed as A289A) is reported as 0.6% and the apigenin glucosylation efficiency ([1]; listed as D394D) is reported as 0.1%. The apigenin glucosylation efficiency ([1]; listed as F229F) was 0.8%, the apigenin glucosylation efficiency ([1]; listed as F290F) was 0.8% and the apigenin glucosylation efficiency ([1]; listed as I228I) was 0.8%. The apigenin glucosylation efficiency ([1]; listed as I330I) was 0.8%, the apigenin glucosylation efficiency ([1]; listed as R226R) was 0.3% and the apigenin glucosylation efficiency ([1]; listed as V331V) was 0.2%. The naringenin glucosylation efficiency [2] was 4.7±1.7% and 4.7%, the naringenin glucosylation efficiency ([2]; listed as A289A) was 3.4% and the naringenin glucosylation efficiency ([2]; listed as D394D) was 0.0%. The naringenin glucosylation efficiency ([2]; listed as F229F) was 0.0%, the naringenin glucosylation efficiency ([2]; listed as F290F) was 0.0% and the naringenin glucosylation efficiency ([2]; listed as I228I) was 0.0%. The naringenin glucosylation efficiency ([2]; listed as I330I) was 0.0%, the naringenin glucosylation efficiency ([2]; listed as R226R) was 2.5% and the naringenin glucosylation efficiency ([2]; listed as R446R) was 6.0%. For the same molecule, the naringenin glucosylation efficiency ([2]; listed as V331V) was 4.7%.

B3: V331A: ASNp amylosucrase single mutant (protein, UniProt Q9ZEU2 1-636, looked up, variant V331A)
Amylosucrase: MLTPTQQVGLILQYLKTRILDIYTPEQRAGIEKSEDWRQFSRRMDTHFPKLMNELDSVYGNNEALLPMLEMLLAQAWQSYSQRNSSLKDIDIARENNPDWILSNKQVGGVCYVDLFAGDLKGLKDKIPYFQELGLTYLHLMPLFKCPEGKSDGGYAVSSYRDVNPALGTIGDLREVIAALHEAGISAVVDFIFNHTSNEHEWAQRCAAGDPLFDNFYYIFPDRRMPDQYDRTLREIFPDQHPGGFSQLEDGRWVWTTFNSFQWDLNYSNPWVFRAMAGEMLFLANLGVDILRMDAVAFIWKQMGTSCENLPQAHALIRAFNAVMRIAAPAAFFKSEAIVHPDQVVQYIGQDECQIGYNPLQMALLWNTLATREVNLLHQALTYRHNLPEHTAWVNYVRSHDDIGWTFADEDAAYLGISGYDHRQFLNRFFVNRFDGSFARGVPFQYNPSTGDCRVSGTAAALVGLAQDDPHAVDRIKLLYSIALSTGGLPLIYLGDEVGTLNDDDWSQDSNKSDDSRWAHRPRYNEALYAQRNDPSTAAGQIYQGLRHMIAVRQSNPRFDGGRLVTFNTNNKHIIGYIRNNALLAFGNFSEYPQTVTAHTLQAMPFKAHDLIGGKTVSLNQDLTLQPYQVMWLEIA
B3 gave an apigenin glucosylation efficiency [1] of 0.5% and a naringenin glucosylation efficiency [2] of 0.0%.
